US20190359693A1 (Janssen / Centocor, published 2019)
Read-outs that look alike come from different tables or passages of the source.

B1: SD1038 (VHH)
VHH: EVQLVESGGGLVQPGGSLRLSCAVSISIFDIYAMDWYRQAPGKQRDLVATSFRDGSTNYADSVKGRFTISRDNAKNTLYLQMNSLKPEDTAVYLCHVSLYRDPLGVAGGMGVYWGKGALVTVSS
notes: llama sdAb
B2: SD1046 (VHH)
VHH: EVQLVESGGGLVQAGDSLRISCAASGRTLSIYSMGWFRQAPGKEREFVATIGWNSGRTFYPDSLKGRFTISRDNARNTLYLQMNNLRPEDTAVYYCAAAKGPLRLSSQADYWGQGTQVTVSS
B3: SD1036 (VHH)
VHH: EVQLVESGGGLVQAGGSLKLSCAASGRTYAMGWFRQAPGKEREFVAHINALGTRTYYSDSVKGRFTISRDNAKNTEYLEMNNLKPEDTAVYYCTAQGQWRAAPVAVAAEYEFWGQGTQVTVSS
notes: llama sdAb

Tests used:
Assay in all cases: cell-based or functional assay
[1] = molecular target: HA of H3N? A/Env/MPJ193/09 (influenza A virus)
[2] = molecular target: HA of H3N2 A/HK/1/68 (N85, E443K) (influenza A virus)
[3] = molecular target: HA of H3N2 A/HK/1/68 (G379R) (influenza A virus)
[4] = molecular target: HA of H3N2 A/HK/1/68 (E443K) (influenza A virus)
[5] = molecular target: HA of H3N2 A/HK/1/68 (L331I, E443K) (influenza A virus)
[6] = molecular target: HA of H3N2 A/HK/1/68 (R201G, L331I, E443K) (influenza A virus)
[7] = molecular target: HA of H3N2 A/HK/1/68 (D375N, I395V) (influenza A virus)
[8] = molecular target: HA of H3N2 A/HK/1/68 (I395V) (influenza A virus)
[9] = molecular target: HA of H3N? A/Env/MPJ193/09 (influenza A virus); remark: listed apart in the source

Binder | VNA titer [1] | VNA titer [2] | VNA titer [3] | VNA titer [4] | VNA titer [5] | VNA titer [6] | VNA titer [7] | VNA titer [8] | VNA titer [9]
B1 | 185 nM | – | – | – | – | – | – | – | –
B2 | – | 202 nM | 571 nM | 202 nM | 202 nM | 339 nM | > 1000 nM | > 1000 nM | –
B3 | – | > 1000 nM | > 1000 nM | > 1000 nM | > 1000 nM | > 1000 nM | > 1000 nM | > 1000 nM | 41 nM
